The target in assay [1] is T1, dipeptidyl-peptidase IV (DPP-IV) (Homo sapiens, UniProt P27487).
T1 construct: purchased Creative BioMart (Shirley, NY, USA); host or cells: HEK293 human cells
The assay is described as follows: DPP-IV inhibition assay on SPOT-synthesized peptides (cleaved from cellulose membrane). It is filed as biochemical. Conditions: for Percent inhibition of DPP-IV activity, SPOT-synthesized deca-peptides: peptides cleaved from cellulose membrane, concentration not known (semi-quantitative), averages of four determinations from two experiments. Put shortly: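 Human DPP-IV expressed in HEK293 cells, with Gly–Pro–p-NA substrate (0.29 mM stock), was tested against α-lactalbumin decapeptides ammonia-cleaved from SPOT cellulose membranes and eluted in 50% acetonitrile/Tris, pH 8.0. After a 10-min preincubation, reaction ran 30 min at 37 °C, was stopped at pH 4.0, and p-nitroaniline absorbance was read at 405 nm.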

A further assay relates to DPP-IV. Conditions: Table S2; cited from earlier work.
Assay [2] concerns the target T1, dipeptidyl-peptidase IV (DPP-IV). The assay is described as follows: Probing of membrane-bound peptide arrays: binding of DPP-IV to deca-peptides (immunoassay, chemiluminescence). The conditions noted are these: for Binding of DPP-IV to cellulose-bound deca-peptide (in words): peptide array on cellulose membrane, DPP-IV 10 μg/mL. The method, then: The interaction between the DPP-IV enzyme and deca-peptides spanning the entire α-lactalbumin sequence (Table S1) was first determined by immunoassay and visualized using an enhanced chemiluminescence substrate (Figure 1).
The membranes were first blocked with protein-free (Tris-buffered saline (TBS)) blocking buffer containing 0.05% Tween-20 for 4 h at room temperature and then incubated with DPP-IV (10 μg/mL in blocking buffer) overnight at 4 °C. The membranes were washed with TBS (50 mM Tris, 136 mM NaCl, 0.05% Tween-20, pH 8.0) four times for 15 min each, after which they were incubated with the polyclonal goat DPP-IV antibody (0.2 µg/mL) for 8 h at 4 °C. The membranes were once again washed with TBS four times for 15 min each prior to being incubated with anti-goat secondary antibody conjugated to horseradish peroxidase (0.1 µg/mL) overnight at 4 °C. Finally, the membranes were washed four more times for 15 min each; then a thin layer of chemiluminescence detection mixture, prepared according to the manufacturer’s instructions, was applied for 1 min and the luminescence generated from the spots on the membranes with bound DPP-IV was measured using a ChemiDoc™ MP system (Bio-Rad Laboratories (Canada) Ltd., Mississauga, ON, Canada).

Assay [3] shares this target. The assay is described as follows: Determination of the mode of inhibition and the inhibition constant (Ki). It is filed as biochemical. As to the method:
The traditionally-synthesized peptides showing the highest inhibitory activity against DPP-IV were further studied for their mode of action on the enzyme as previously described with the following modifications: the substrate (25 µL) was combined with 100 mM Tris-HCl buffer pH 8.0 (35 µL) and the sample (25 µL) and pre-incubated for 10 min at 37 °C, after which the enzymatic reaction was started by addition of the DPP-IV enzyme (15 µL of a 25 mU/mL solution).
The mode of inhibition and Ki values of the inhibitory peptides were determined by fitting the initial velocity versus substrate concentration data to nonlinear regression models using the GraphPad Prism software (version 6, GraphPad Software, San Diego, CA, USA). The Ki values are expressed as final assay concentrations.

Assay [4] has the same target. The assay is described as follows: DPP-IV inhibition assay on traditionally-synthesized peptides. The conditions noted are these: 250 µM of peptides (final assay concentration); averages of three determinations. It is filed as biochemical. The text has this:
Recombinant human dipeptidyl-peptidase IV (DPP-IV, EC 3.4.14.5, expressed in HEK293 human cells, >95% purity, activity >5500 pmoles Gly–Pro–7-amido-4-methylcoumarin/min/µg) was purchased from Creative BioMart (Shirley, NY, USA) while polyclonal goat DPP-IV antibody and polyclonal donkey anti-goat secondary antibody conjugated to horseradish peroxidase were obtained from R&D Systems (Minneapolis, MN, USA). Pierce™ ECL western blotting substrate and protein-free (TBS) blocking buffer were from Thermo Scientific (Rockford, IL, USA). Gly–Pro–p-nitroanilide (H-Gly–Pro–p-NA∙HCl) was purchased from Bachem Americas (Torrance, CA, USA). Synthesized peptides (≥95% purity) were prepared and purified by GL Biochem (Shanghai) Ltd. (Shanghai, China).
The peptides were dissolved in a mixture of acetonitrile and H2O and further diluted in 100 mM Tris-HCl pH 8.0 buffer to the desired concentrations. In a 96-well microplate, 25 µL of sample were pre-incubated with 25 µL of 100 mM Tris-HCl pH 8.0 buffer and 35 µL of Gly–Pro–p-NA (0.29 mM in 100 mM Tris-HCl buffer pH 8.0) at 37 °C for 10 min. The enzymatic reaction was started by addition of 15 µL of DPP-IV solution (25 mU/mL) and carried out at 37 °C for 30 min. Sodium acetate buffer (1 M, pH 4.0, 100 µL) was added to stop the reaction and the absorbance of the released p-nitroaniline was measure at 405 nm using a Tecan Infinite® 200 Pro microplate reader. The positive and negative controls were prepared by using Tris-HCl buffer (100 mM, pH 8.0) in place of the sample and in place of the sample and enzyme solution, respectively.

Here are results for eight sequences from article PMC4264199, “Peptide Array on Cellulose Support—A Screening Tool to Identify Peptides with Dipeptidyl-Peptidase IV Inhibitory Activity within the Sequence of α-Lactalbumin” (International Journal of Molecular Sciences, 2014).

Several values for one entry are separate records, joined by “and”; a condition that tells them apart may be missing. Equal entries are not always repeated. Entries after “also recorded” stand apart in the source; their conditions may differ. Ends that are not written are not given here.

T1 sequence (P27487 whole entry): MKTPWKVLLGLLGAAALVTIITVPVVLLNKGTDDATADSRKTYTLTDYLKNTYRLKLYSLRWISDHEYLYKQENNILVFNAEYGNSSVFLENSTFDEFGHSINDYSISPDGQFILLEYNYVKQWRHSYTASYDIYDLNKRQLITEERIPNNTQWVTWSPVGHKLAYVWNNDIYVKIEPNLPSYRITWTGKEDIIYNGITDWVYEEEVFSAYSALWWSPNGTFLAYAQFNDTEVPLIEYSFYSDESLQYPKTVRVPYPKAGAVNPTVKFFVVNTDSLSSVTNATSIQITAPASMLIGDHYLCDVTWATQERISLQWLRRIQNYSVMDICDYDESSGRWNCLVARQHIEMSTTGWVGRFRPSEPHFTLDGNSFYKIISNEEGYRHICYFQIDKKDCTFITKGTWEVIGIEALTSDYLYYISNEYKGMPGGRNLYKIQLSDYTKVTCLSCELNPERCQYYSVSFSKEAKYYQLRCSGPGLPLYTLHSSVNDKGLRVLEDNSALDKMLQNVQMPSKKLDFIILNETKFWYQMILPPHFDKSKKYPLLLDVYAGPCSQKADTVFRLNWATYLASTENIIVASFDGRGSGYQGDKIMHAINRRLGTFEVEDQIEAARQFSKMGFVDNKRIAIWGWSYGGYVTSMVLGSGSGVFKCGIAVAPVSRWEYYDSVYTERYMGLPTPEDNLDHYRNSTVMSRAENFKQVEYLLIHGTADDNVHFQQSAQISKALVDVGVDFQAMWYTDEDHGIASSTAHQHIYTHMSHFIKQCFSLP

Take HSQGTFTSDY [K8, reference compound]: the “Percent inhibition of DPP-IV activity, SPOT-synthesized deca-peptides” value (shortened to “Percent inhibition of DPP-IV activity”) in assay [1] turned out to be 15%. The “Reported Relationship to DPP-IV” value in the assay with DPP-IV is “Inhibitor”. For the same sequence, the “Binding of DPP-IV to cellulose-bound deca-peptide (in words)” value in assay [2] is “found to bind to DPP-IV”.

Regarding IPAVFKIDA, the “Reported Relationship to DPP-IV” value in the assay with DPP-IV was “inhibitor”.

Turning to IVTQTMKGLD [K5, reference compound], the “Percent inhibition of DPP-IV activity” value in assay [1] came out at 16%. Besides, the “Reported Relationship to DPP-IV” value with DPP-IV is reported as “Weak inhibitor”. Further, the “Binding of DPP-IV to cellulose-bound deca-peptide (in words)” value in assay [2] is “found to bind to DPP-IV”.

In the case of LKPTPEGDL, in the assay on DPP-IV, the “Reported Relationship to DPP-IV” value is reported as “inhibitors”.

On to LKPTPEGDLEIL, for which the “Reported Relationship to DPP-IV” value with DPP-IV is “inhibitors”.

In assay [3], LPEWVCTTFH [C1, LPEWVCTTFH] came in with a Ki of 300 ± 16 µM. For the same sequence, in assay [4], the inhibition at 250 µM was found to be 26%. Also, the “Percent inhibition of DPP-IV activity” value in assay [1] was found to be 26%.

On to WCKDDQNPHS [F5], for which, in assay [3] (traditionally synthesized peptide, un-competitive inhibition, final assay concentration, average ± standard error, triplicate), the αKi was 76 µM and 76 ± 5 µM. The “Mode of Inhibition” value in assay [3] (traditionally synthesized peptides, Lineweaver-Burk / nonlinear regression) is given as “Un-competitive”. The “% DPP-IV Inhibition Traditionally-Synthesized” value in assay [4] turned out to be 51%. For the same sequence, in assay [1] (class by decrease in DPP-IV activity), the “Category: inhibitory activity” value is reported as “High inhibitory activity (High inhibitory activity refers to peptides able to cause more than 20% decrease in DPP-IV activity)”. The “Percent inhibition of DPP-IV activity” value in assay [1] worked out at 29%. Also, in assay [2], the “Binding of DPP-IV to cellulose-bound deca-peptide (in words)” value was “moderate or no binding; also recorded: no or only moderate interaction with DPP-IV”. Further, in assay [2] (peptide array spot, relative luminescence intensity), the “Category: binding” value is recorded as “moderate/no binding”.

In the case of “YPSKPDNPGE [K11, YPSKPDNPGE, reference compound]”, affinity in assay [3] was put at a Ki of 262 ± 17 µM. The sequence further gave an inhibition at 250 µM in assay [4] of 25%. For the same sequence, in assay [1], the “Percent inhibition of DPP-IV activity” value was 31%.

Usually Ki stands for the equilibrium dissociation constant of an inhibitor or competing ligand from its target. A higher Ki goes with weaker binding. Usually inhibition stands for the percentage by which the read-out fell short of the control. A low value points to a weak effect.
